Experimental data taken from a protein production outcome set (Wang et al. 2014).

Assay: label from the status in PepcDB records

For “MLSGMSGGMLFIVFAWLIGHAVLRIVPTAYKPVLMVRSRGIALALSAIPLLLAYQLYEVVRVVQSQFSLSFQEAASTVIIQHPVGQSWFVVFTVTVFLGVLLLFPEKRVTANLFFVGVLLLIVSVSWVSHGTALLGWQGFVLNTSHLLASAVWIGTLLMVGWGARPLTDGLKFHRWFSLMVVCAVAVLSVSGLLLMNVIVPEYVPSWALTYGQFLLMKHLLFLPLLLFGLRHLLWLRAEKPLSVVQRSIRIESVVGCVVFFLSAFMTRQTPPHEVAETMQVEPPAWSFLLFHPEGLSVFQQLTLSLTGWGIACLVLAMIGLAASVLSLRHKSLFVFTTSSLTASLFLYVGLMLSVTPVSILVDETRYPTVEAAIQATYEDKTSIDIVLEDETEETTTVIYTVNAHDFVIEKLGIDSETDDFYRLPAAMLTVGGTSVYDEPMKIRTFQVTDGQWKETGSNYTYVTFGMIQEPKETVRLQLHYEDGSYVTELTNGVFYHVYQSDVEMSQPVIDLLAEDGTKVDQFLPAGVEQGVYCH”, the protein production was “failed”.

With “MSKTVVLPQSDSPSVVASVSFWQAFRFWLKLGFISFGGPAGQIAMMHQELVDNRRWISEGRFLHALNFCMVLPGPEAQQLATYIGWLMHKTWGGVIAGVLFILPSLVLLIALAWIYLVWGDVAVVAGIFYGIKPAVAAIVLQAAHRIGSRALKNGAYWAIAAAAFVAIFALNVPFPLIVLAAALVGFIGGRLAPTIFGRADAHHAQSHPGGAAIIDDTTPIPAHAIFSWRRTSQVLIAGMLLWLVPMAALTLMLGWAHPLTQMSWFFTKAALMTFGGAYAVLPYVYQGAVTHYGWLTAGQMMDGLALGESTPGPLIMVVTFVGFVGGYTKAVLGVDDVLLGGIAAACLVTWFTFLPSFIFILAGGPFIETTHNKVGFTAPLTAITAAVVGVILNLALFFIWHSVWGPSGFDPWSAAIALGAAGLLFRYKWKLTWVLATAAAVGLIVHMAGLSGAG” the protein production was “failed”.

In the case of “ANVKLLLPYILKWEGGFVHDPADAGGATNKGVTIATWKRVGYDKDGDGDIDVEDLKLLTDDDVLNRVLKPFYWDRWKADLIESQKVANILVDWVWGSGKYGIVIPQRILGVQADGIVGNKTLQAVNSADPDELFESIFDARREFLEDITARSIKKYEDSIGRKATERELLRHTNKRFLRGWLNRLEDI”, the protein production was “not failed”.

For “MRGLAACYSEHAIKVSDTYCSGPSNHSYISPTLPPSIPDTVTTTYRSNLPSSDKPVSVSLTWSDNLTVVISTPPKSYSVSLRKPKGSRKLTSSSGSLNAEILWDLSEAEYENNGPEPIRRFFVVVVVNSEITLGVGDVDHERDTSSSSSWRVSKTERFSGTCWLTTKAQFSDVGRKHEIQIQCGGGGGGGGEEGYLWKVKSPETMSVYVDKRKVFSVKKLKWNFRGNQTMFFDGMLIDMMWDLHDWFYKETLSSVSTSSSSKTASSSSSSSTSSSTPPCAVFMFRRRSGLDSRLWIDEDEQESEMKKNIGSRDEKHSFSLIICASKK”, the protein production was “failed”.

In the case of “MTTTLTILTPTYNRAYILPKLYASLVEQTNKHFDWMVVDDGSTDNTEQLISEFIADGKINIVYIKQKNGGKHRALNTGAQSINSDYIFIVDSDDYLTNDAIDIILENSHYLKEKNLMGMTLLRGYAPDKVIGEKYPEDFMIKNFNQVRYNMGIKGDKAEVVSTKIFRETPFPEIPGERFMSEGVAWKQLAHKGDSLFINKIVYITEYLEDGLTHSGRLLLIKNPLGAMLNAKLAMTKEFSFKIREKNSLLYIAYGFFAKKKVREIITESGQRKLVRVNLLFGWMI”, the protein production was “failed”.

For “MSDVYNNEAFFKQYMKRRYRENSPNELIEKPAFFQLIGDVKGKKILDLGCGDAIFGKELLEKDCHSYTGIEGSELMYEKAKKQLENKNGIVHFLNLKDYTYPPATFDLVTSRLALHYIEHLPIIFQNVYETLKTNGTFTFSVQHPVITSSFESLQTSGKRTSWLVDDYFKTGKRVEPWIDQKVIKYHRTTEEYFTLLQQAGFTITNLKEATPNQTYFQSAEEYERRLRIPLFLLFSCRKLEHHHHHH”, the protein production was “failed”.

With “MSVADSYFDELFRNNDDPWAFKQRWYERRKRALTLAALPRERYRAIFEPGCANGELSADLAERCDMLVCCDTSTQAVELARQRLADVPHARVVQARLPHQWPAGQFDLIVFSELGYYLDAADLHRLIDCALAALSPDGQLLACHWRPDIEGCPLNAQAVHAILAERLSMHRLFSHHEQDFLLDLWSRDGTSVAELEHHHHHH” the protein production was “not failed”.

In the case of “MRTIWLVFIANFKRAYSNKKKFFINLLVPVAAIILAIVVNYVSSPSLNIGVNEKIKSKGGDRIVKMLKHTRGINAKVCHGELMKTEVILGKYDAVVTIKRKLGKNSFNNMSKYFEFYNVRDKKTNEDMKKLIKAYLVQNKTLNMERIVKDEQIGGLSKSERIIAFLATVLLITSVVNGAVIIRDREENTYYRYMYSPNSKFEYIFGNVIYNYIFSYIQLFIANSLMAIFGIYIGISFLKMLSYGLILTLVMTTFGTFIVCIFNKELYANMFSAAISLILSLVGGTFINYKIMPEGLRRISDVTPNRWIIKSVQYMQNGRFGSINPMMVLIAFSIMFSLAAVLVSKFHKVQFK”, the protein production was “failed”.

With “MDHDKTGCQSPPEGPKLCTNNCGFFGSAATMNMCSKCHKDMLFQQEQGAKFASAVSGTSSSSNIIKETFTAALVDIETKSVEPMTVSVQPSSVQVVAEVVAPEEAAKPKGPSRCTTCNKRVGLTGFKCRCGSLFCGTHRYADVHDCSFNYHAAAQEAIAKANPVVKAEKLDKI” the protein production was “failed”.

With “MAVKHASAPKAYINITGLGFAKLTKEGAELKYSDITKTRGLQKIGVETGGELKTAYADGGPIESGNTDGEGKISLQMHAFPKEIRKIVFNEDYDEDGVYEEKQGKQNNYVAVWFRQERRDGTFRTVLLPKVMFTNPKIDGETAEKDWDFSSEEVEGEALFPLVDNKKSVRKYIFDSANMTNHGGDGEKGEEAFLKKILGEEYTGNVTEDNEETLLEHHHHHH” the protein production was “not failed”.

For “NSAAIQEMNREVEAAAKRTSPVFLTGEAGSPFETVARYFHKNGTPWVSPARVEYLIDMPMELLQKAEGGVLYVGDIAQYSRNIQTGITFIIGKAERCRVRVIASCSYAAGSDGISCEEKLAGLFSESVVRIPPLS”, the protein production was “failed”.

For “KQLLTLKIKCSNQPERQILEKQLPDSMTVQKVKGLLSRLLKVPVSELLLSYESSKMPGREIELENDLQPLQFYSVENGDCLLVR”, the protein production was “not failed”.

In the case of “MSHVSDYRPCFLIPCYNHGSTIADVVASLSSFDLPVLVVDDGSNEDTKQALSALSEQGLIKLISLSENQGKGGAVMAGLHQAHQLGFTHTIQIDADGQHDLEALPKLLSASETKPDNLISGQPIYDESVPKARLYGRYATHIWVWIETLSLSIKDSMCGFRAYPVAKTVAVLNKYNIGKRMDFDIEILVRMYWEGVDIDFVPTRVIYPEGGISHFDALWDNVKISWMHTRLFFGMLPRIPSLLARKRRHTDDSNAHWSKRKEQGTILGIKTLLAVYRLFGRKAFDLILKLVMRYYHFTGKSAREASEIYLQNLQRYAAQQNIALPKQLDSYHHLLSFGRTMLDKLAAWQGDFNVDNLTIHGQHHFEEMAQKKQGVLILGSHLGNIELCRALGRRHSHVKINALVFTQHAEQFNAVMKAVNPNSELNLIQVSSMGPDTAILLQQKIEQGEWVVIVGDRTSTSKENRVVWADFLGKPAPFPQGPFMLASVLKAPVYLLFGLRDDEANTPHFNVYFEHFSDQITLPRKERQQALEHVVQQYAHRLEHHTLQAPLQWYNFFNFWTLSNQPHDKQQ”, the protein production was “failed”.

For “HRWITRPKFTHFDLHTLNWDLCLTQANHKSNLALEMLKMLLDSLPETVEKIQTALGQNDQATMLSTIHKLHGASCYCGVPTTQRLCQEIESALKRQTPVEDLEPEILELLDELTKVESAVKQVLSQLSAE”, the protein production was “not failed”.

In the case of “MTSFEDADTEETVTCLQMTVYHPGQLQCGIFQSISFNREKLPSSEVVKFGRNSNICHYTFQDKQVSRVQFSLQLFKKFNSSVLSFEIKNMSKKTNLIVDSRELGYLNKMDLPYRCMVRFGEYQFLMEKEDGESLEFFETQFILSPRSLLQENNWPPHRPIPEYGTYSLCSSQSSSPTEMDENES”, the protein production was “failed”.

For “MFTYLLITIFGIGLLIWAFWYDKNMFKPEKKKNGKMTKPLHTRWYFWVLVVFSIVGGIGNMLGLGADDDDSDNNSAQTVQTSKKAKQSKAENHSKAKKSGTKKSKEISDEEKEAAALLLLRKNFKGKAKVWYDSDNKAFMIQPTGTEFKEELLDIIATQDTSDWKDLTDSMDSLSRSLYKNLQLADFVSIVNPDNPDKVLYSSLNGHSEYDFLKDDE”, the protein production was “failed”.

In the case of “MPLVSMKEMLNKALEGKYAVGQFNMNNLEWTQAILAAAEEEKSPVILGVSEGAARHMTGFKTVVAMVKALIEEMNITVPVAIHLDHGSSFEKCKEAIDAGFTSVMIDASHHPFEENVETTKKVVEYAHARNVSVEAELGTVGGQEDDVIAEGVIYADPAECKHLVEATGIDCLAPALGSVHGPYKGEPNLGFAEMEQVRDFTGVPLVLHGGTGIPTADIEKAISLGTSKINVNTENQIEFTKAVREVLNKDQEVYDPRKFIGPGRDAIKATVIGKIREFGSNGKA”, the protein production was “not failed”.

With “MSLTNHEQVLTDYLAAFIEELVRAGVKEAIISPGSRSTPLALMMAEHPILKIYVDVDERSAGFFALGLAKASKRPVVLLCTSGTAAANYFPAVAEANLSQIPLIVLTADRPHELRNVGAPQAMDQLHLYGSHVKDFTDMALPENSEEMLRYAKWHGSRAVDIAMKTPRGPVHLNFPLREPLVPILEPSPFTATGKKHHHVHIYYTHEVLDDSSIQKMVTECTGKKGVFVVGPIDKKELEQPMVDLAKKLGWPILADPLSGLRSYGALDEVVIDQYDAFLKEAEIMDKLTPEVVIRFGSMPVSKPLKNWLEQLSDIRFYVVDPGAAWKDPIKAVTDMIHCDERFLLDIMQQNMPDDAKDAAWLNGWTSYNKVAREIVLAEMANTTILEEGKIVAELRRLLPDKAGLFIGNSMPIRDVDTYFSQIDKKIKMLANRGANGIDGVVSSALGASVVFQPMFLLIGDLSFYHDMNGLLMAKKYKMNLTIVIVNNDGGGIFSFLPQANEPKYFESLFGTSTELDFRFAAAFYDADYHEAKSVDELEEAIDKASYHKGLDIIEVKTNRHENKANHQALEGHHHHHH” the protein production was “not failed”.

In the case of “MQPWTQIYTPLGSLWLSALAAAIPILFFFVALAVLRMKGHVAAAVTLALALAVAIFAYGMPAQQAFAAAGFGFAYGLWPIAWIIVTAVFLYKIVVKTGQFDVIRASVLSITDDQRLQMLLIGFAFGAFLEGAAGFGAPVAITAALLVGLGFNPLYAAGLCLIANTAPVAFGAMGIPIIVAGQVTGIDPMHIGAMAGRQLPLLSLAVPFWLVFMMDGAKGVRETWPAALVVGGSFAVTQYFTSNHIGPELPDITSALVSLISLAAFLRVWQPRSASQAAGGTVAAGGTVAMAGFGGGMGAPASRKASPYTFGQTVRAWAPFGILTAIVTVWSLAPFKALFAGNGALAGTVLKFKVPMLDQLVIKSAPIVASPKPYEAVLKLDLLSAVGTAILLTAIISAVLLRMKPSDAITTFKETLLELRRPIASIGLVLAFAFVANYSGMSSTLALLLAGTGAAFPFFSPLLGWLGVFLTGSDTSSNALFCSLQHTTAHQIGVSDTLLVAANTTGGVTGKMISPQSIAVACAATGLVGKESELFRFTVKHSLLFAAIVGVITMIQAYWLTGMIPG”, the protein production was “failed”.

With “TIEARTAQSTPSAPPQKVMCVSMGSTTVRVSWVPPPADSRNGVITQYSVAYEAVDGEDRGRHVVDGISREHSSWDLVGLEKWTEYRVWVRAHTDVGPGPESSPVLVRTDEDVPSGPPRKVE” the protein production was “not failed”.

For “MEEELQHSHCVNCVSRRCMTRPEPGISCDLIGCPLVCGAVFHSCKADEHRLLCPFERVPCLNSDFGCPFTMARNKVAEHLEMCPASV”, the protein production was “not failed”.

In the case of “MEHTWMMKYFAEFFGTIILVVFGNGAVANSVLTKTGGNSHDGQANGGWLLIAFSFGFGVMLPAMMFGSISGNHLNPAVTLAQACAGAFPWNQVLPYILVQMLGAIVGQLLLVAVYWPFIAKTSSDDAVFASFSTGDIADSKLNGFITEFVGTAILLFVAVGLYRGMFFKQSEDIANIGVGFLITALVMAVGGPTGPALNPARDLGPRIVYALCPLPHKGSAHWDYGWIPVVAPIAGGICGALLYKLAFGL”, the protein production was “failed”.
